PMC6628914

Biological target: HIV-1 BaL envelope (Env, gp120-gp41) on HIV-1 BaL pseudovirions (HIV-1 BaL, Env clone BaL.01) (UniProt Q2MKA9)
Assay: two-color fluorescence correlation spectroscopy (FCS)

Substance: mAb b12 (IgG), Alexa 647-labelled (antibody)
- percent of mAb virion-bound (slower diffusion coefficient): 42%
